Test results as given in paper PMC12207459, “A self-assembling surface layer flattens the cytokinetic furrow to aid cell division in an archaeon” (Proceedings of the National Academy of Sciences of the …, 2025).

Molecular target: the molecule itself
Test: cryo-EM imaging of cells; unlabeled purified S-layer proteins added to live Vps4 E209Q ΔslaA cells, 75 °C, 1 h; lattice seen on the cell surface by cryo-EM

B1: purified SlaA from wild-type S. acidocaldarius, unlabeled (natural protein, Sulfolobus acidocaldarius, UniProt Q4J6E5 25-1424, looked up)
chain: ITTTALTPPVSAGGIQAYLLTGSGAPASGLVLFVVNVSNIQVSSSNVTNVISTVVSNIQINAKTENAQTGATTGSVTVRFPTSGYNAYYDSVDKVVFVVVSFLYPYTTTSVNIPLSYLSKYLPGLLTAQPYDETGAQVTSVSSTPFGSLIDTSTGQQILGTNPVLTSYNSYTTQANTNMQEGVVSGTLTSFTLGGQSFSGSTVPVILYAPFIFSNSPYQAGLYNPMQVNGNLGSLSSEAYYHPVIWGRALINTTLIDTYASGSVPFTFQLNYSVPGPLTINMAQLAWIASINNLPTSFTYLSYKFSNGYESFLGIISNSTQLTAGALTINPSGNFTINGKKFYVYLLVVGSTNSTTPVEYVTKLVVEYPSSTNFLPQGVTVTTSSNKYTLPVYEIGGPAGTTITLTGNWYSTPYTVQITVGSTPTLTNYVSQILLKAVAYEGINVSTTQSPYYSTAILSTPPSEISITGSSTITAQGKLTATSASATVNLLTNATLTYENIPLTQYSFNGIIVTPGYAAINGTTAMAYVIGALYNKTSDYVLSFAGSQEPMQVMNNNLTEVTTLAPFGLTLLAPSVPATETGTSPLQLEFFTVPSTSYIALVDFGLWGNLTSVTVSAYDTVNNKLSVNLGYFYGIVIPPSISTAPYNYQNFICPNNYVTVTIYDPDAVLDPYPSGSFTTSSLPLKYGNMNITGAVIFPGSSVYNPSGVFGYSNFNKGAAVTTFTYTAQSGPFSPVALTGNTNYLSQYADNNPTDNYYFIQTVNGMPVLMGGLSIVASPVSASLPSSTSSPGFMYLLPSAAQVPSPLPGMATPNYNLNIYITYKIDGATVGNNMINGLYVASQNTLIYVVPNGSFVGSNIKLTYTTTDYAVLHYFYSTGQYKVFKTVSVPNVTANLYFPSSTTPLYQLSVPLYLSEPYYGSPLPTYIGLGTNGTSLWNSPNYVLFGVSAVQQYLGFIKSISVTLSNGTTVVIPLTTSNMQTLFPQLVGQELQACNGTFQFGISITGLEKLLNLNVQQLNNSILSVTYHDYVTGETLTATTKLVALSTLSLVAKGAGVVEFLLTAYPYTGNITFAPPWFIAENVVKQPFMTYSDLQFAKTNPSAILSLSTVNITVVGLGGKASVYYNSTSGQTVITNIYGQTVATLSGNVLPTLTELAAGNGTFTGSLQFTIVPNNTVVQIPSSLTKTSFAVYTNGSLAIVLNGKAYSLGPAGLFLLPFVTYTGSAIGANATAIITVSDGVGTSTTQVPITAENFTPIRLAPFQVPAQVPLPNAPKLKYEYNGSIVITPQQQVLKIYVTSILPYPQEFQIQAFVYEASQFNVHTGSPTAAPVYFSYSAVRAYPALGIGTSVPNLLVYVQLQGISNLPAGKYVIVLSAVPFAGGPVLSEYPAQLIFTNVTLTQ
modifications: highly glycosylated
notes: S-layer protein SlaA of Sulfolobus acidocaldarius, locus saci2355, extracted from the S-layer of wild-type cells; Same preparation as m1 without the dye; it may also contain SlaB; also called unlabeled exogenous S-layer proteins; soluble S-layer proteins
binding result: binds
